Laboratory results as given in the supplement of paper PMC9428881.
± gives the standard error.

Experiment: background-corrected fluorescence of 3'-dye-labeled ssDNA relative to brightest sequence (3'-GCGCG) (fraction); higher = brighter dye fluorescence (less quenching)
How it was run: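 By light-directed phosphoramidite synthesis, single-stranded DNA ending in a 3' Cy3 or Cy5 dye beside each of 1024 permuted pentamers was built on glass slides. Scanning at 532 or 635 nm took place before and after overnight ethylenediamine/ethanol deprotection. Data are means of 10 features per array over at least 3 syntheses. Fluorescence is corrected for unlabeled-oligo background and scaled to the brightest sequence.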

| Sequence | background-corrected fluorescence (dye: Cy3 (3' terminal)) | background-corrected fluorescence (dye: Cy5 (3' terminal)) |
| --- | --- | --- |
| TTTTTGCATCATCATGCTGATTTTTTTTTTTTTTTTGGAC [CAGGT] | 0.5012 ± 0.0043 | 0.404 ± 0.046 |
| TTTTTTCATGATGATGAGCATTTTTTTTTTTTTTTGCCCT [TCCCG] | 0.449 ± 0.021 | 0.329 ± 0.019 |
| TTTTTTCATGCTGCTGATCATTTTTTTTTTTTTTTGAACG [GCAAG] | 0.541 ± 0.028 | 0.404 ± 0.023 |
| TTTTTTGATGATCATGCTGCTTTTTTTTTTTTTTTCCGAA [AAGCC] | 0.647 ± 0.047 | 0.49 ± 0.031 |
| TTTTTTCAGCATCATGATCATTTTTTTTTTTTTTTGTGCG [GCGTG] | 0.568 ± 0.056 | 0.499 ± 0.028 |
| TTTTTTCATCATGATGCTGCTTTTTTTTTTTTTTTGGCAA [AACGG] | 0.5847 ± 0.005 | 0.504 ± 0.041 |
| TTTTTTCAGCATGAGCATCATTTTTTTTTTTTTTTGTCTG | 0.54 ± 0.031 | 0.387 ± 0.025 |
| TTTTTTGCTGATCAGCATGCTTTTTTTTTTTTTTTACGTA [ATGCA] | 0.61 ± 0.016 | 0.465 ± 0.024 |
| TTTTTTCAGCAGCATCATGATTTTTTTTTTTTTTTGTTGC [CGTTG] | 0.53 ± 0.024 | 0.389 ± 0.025 |
| TTTTTTGCTCATGCGCATGATTTTTTTTTTTTTTTAGATC [CTAGA] | 0.464 ± 0.013 | 0.359 ± 0.023 |
| TTTTTTGATGCGCATGATCATTTTTTTTTTTTTTTCATCG [GCTAC] | 0.543 ± 0.018 | 0.375 ± 0.026 |
| TTTTTTGATCAGCATGATGCTTTTTTTTTTTTTTTCGTCA [ACTGC] | 0.547 ± 0.03 | 0.378 ± 0.032 |
| TTTTTTCAGCATCATGCTGATTTTTTTTTTTTTTTGTGAC [CAGTG] | 0.483 ± 0.02 | 0.387 ± 0.064 |
| TTTTTTCATGCGCATCATGATTTTTTTTTTTTTTTGATGC [CGTAG] | 0.522 ± 0.031 | 0.425 ± 0.03 |
| TTTTTTGATCATGCTCATGATTTTTTTTTTTTTTTCGAGC | 0.547 ± 0.018 | 0.425 ± 0.035 |
| TTTTTGCATCATGCTCATCATTTTTTTTTTTTTTTTGAGG [GGAGT] | 0.67 ± 0.013 | 0.529 ± 0.043 |
| TTTTTTGCTGAGCATGCTCATTTTTTTTTTTTTTTACTAG [GATCA] | 0.554 ± 0.029 | 0.433 ± 0.025 |

| Sequence | background-corrected fluorescence (dye: Cy3 (3' terminal)) | background-corrected fluorescence (dye: Cy5 (3' terminal)) |
| --- | --- | --- |
| TTTTTGCATCATGAGCATGCTTTTTTTTTTTTTTTTGCTA [ATCGT] | 0.55 ± 0.032 | 0.399 ± 0.041 |
| TTTTTGCATGAGCATCAGCATTTTTTTTTTTTTTTTCTGT [TGTCT] | 0.594 ± 0.015 | 0.433 ± 0.02 |
| TTTTTTGATGATCATGCTCATTTTTTTTTTTTTTTCCGAG [GAGCC] | 0.593 ± 0.015 | 0.501 ± 0.072 |
| TTTTTTGCTGCTGATGATGATTTTTTTTTTTTTTTAACCC [CCCAA] | 0.392 ± 0.021 | 0.294 ± 0.016 |
| TTTTTGCATCATGATGCTCATTTTTTTTTTTTTTTTGCAG [GACGT] | 0.526 ± 0.033 | 0.425 ± 0.029 |
| TTTTTTCATCATCATGATCATTTTTTTTTTTTTTTGGGCG [GCGGG] | 0.69 ± 0.031 | 0.521 ± 0.062 |
| TTTTTTGCTCATGCTGCTGATTTTTTTTTTTTTTTAGAAC [CAAGA] | 0.485 ± 0.022 | 0.358 ± 0.022 |
| TTTTTTCATGAGCATCATCATTTTTTTTTTTTTTTGCTGG [GGTCG] | 0.557 ± 0.039 | 0.47 ± 0.032 |
| TTTTTGCATGATGATGCGCATTTTTTTTTTTTTTTTCCAT [TACCT] | 0.477 ± 0.025 | 0.344 ± 0.024 |
| TTTTTGCATCATCAGCATGCTTTTTTTTTTTTTTTTGGTA [ATGGT] | 0.609 ± 0.0091 | 0.492 ± 0.033 |
| TTTTTTGCTGATGCTGAGCATTTTTTTTTTTTTTTACACT [TCACA] | 0.51 ± 0.018 | 0.35 ± 0.033 |
| TTTTTTGATCATCATCATCATTTTTTTTTTTTTTTCGGGG [GGGGC] | 0.673 ± 0.024 | 0.65 ± 0.044 |
| TTTTTTGATGCTCATGAGCATTTTTTTTTTTTTTTCAGCT [TCGAC] | 0.543 ± 0.022 | 0.418 ± 0.022 |
| TTTTTTGCTGCTGCTGATCATTTTTTTTTTTTTTTAAACG [GCAAA] | 0.559 ± 0.023 | 0.426 ± 0.028 |
| TTTTTTGCTGCTGAGCATGATTTTTTTTTTTTTTTAACTC [CTCAA] | 0.418 ± 0.028 | 0.293 ± 0.019 |
| TTTTTTCATCAGCAGCATGATTTTTTTTTTTTTTTGGTTC [CTTGG] | 0.414 ± 0.026 | 0.31 ± 0.025 |
| TTTTTTGCTGCTGATGATGCTTTTTTTTTTTTTTTAACCA [ACCAA] | 0.492 ± 0.017 | 0.375 ± 0.053 |
